Reference: patent US11155643B2, “Glucan kinases and methods for processing starch using the same” (University of Kentucky Research Foundation, priority 2017, dated 2021)
Changes are numbered by the printed parent chain. Names may count otherwise. “Also recorded” adds a separate entry of the source.

Columns and labels:
[1] = starch-phosphorylation assay (33P-β-ATP radio-label incorporation into starch); assay type: biochemical, Arabidopsis; settings: for ability to phosphorylate starch (specific activity): FIG. 2, FIG. 3
Description: FIG. 8 includes the framework for the C6 versus C3 assay. To label the C6-position, non-phosphorylated starch is incubated in the presence of GWD and ^33P-β-ATP, the protein and label are washed away, and the starch is incubated in the presence of ATP and PWD. The C3 position is labeled in a similar manner, except ^33P-β-ATP is used with PWD. These products are then used as substrates in dephosphorylation assays. A starch-phosphorylation assay is routinely used in the lab to measure the specific activity of protein constructs. This assay has 3 benefits: it utilizes an endogenous substrate, measures the amount of phosphate added to glucose (dikinase activity), and allows comparison of addition to the C3- and C6-positions (site-specific activity) (FIG. 8). Phosphate-free starch was isolated from plants lacking the dikinase GWD, and the sample dialyzed to remove free phosphate. To measure dikinase activity, this phosphate-free starch was used as the substrate. The starch was incubated with the dikinase in question along with ^33P-β-ATP, the ^33P-β-ATP and dikinase was washed out, and radio-label incorporation into the starch was measured.

[2] = molecular target: T1, Cyanidioschyzon merolae Cm-GWD DUF domain (CmGWD DUF, amino acids 345-469; full length Cm-GWD SEQ ID NO: 2) (Cyanidioschyzon merolae, UniProt M1VD00); assay: differential scanning fluorimetry (DSF)-based thermal shift assay, oligosaccharide binding
T1 construct: recombinant, purified
T1 sequence (M1VD00 345-469): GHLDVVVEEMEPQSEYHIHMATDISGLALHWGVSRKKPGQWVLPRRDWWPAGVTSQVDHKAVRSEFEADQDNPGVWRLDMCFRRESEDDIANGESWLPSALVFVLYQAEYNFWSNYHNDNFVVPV
Description: FIGS. 5A-C show graphs and images illustrating expression and thermal shift of various domains of the Cm-GWD. (A) is an image showing the expression of the Cm-GWD DUF domain constructs with varying N- and C-termini. (B) is an image showing the expression of individual N-terminal domains of Cm-GWD.
To characterize the enzymes' structure, the architecture of the dikinases was first analyzed. The sequences of the dikinases were analyzed using bioinformatic tools. The dikinase primary sequences from multiple species were analyzed to predict sequence conservation, secondary structure, regions of disorder, and regions of hydrophobicity in order to define the optimal constructs for recombinant protein expression of Cm-GWD. At-GWD and PWD have been reported to have cTP, one or two CBM domains, and a dikinase domain (FIG. 4). […]
The binding of purified proteins to oligosaccharides was measured using a differential scanning fluorimetry (DSF)-based thermal shift assay. […] As a proof of principle, the binding of the Cm-GWD DUF to the oligosaccharide maltohexaose and to maltose was measured, as a negative control. […] The change in Tm was monitored with increasing concentration of oligosaccharide (FIG. 5C). […]

[3] = glucose release from native starch treated with combinations of amylases, dikinase and phosphatase; assay type: biochemical, Arabidopsis
Description: FIG. 7 includes a plot showing the glucose released for native Arabidopsis starch that was incubated at 25° C. for 60 minutes with combinations of amylases (BAM+ISA), dikinase (At-GWD), or phosphatase (At-SEX4), undigested starch was pelleted with a high-speed spin, the supernatant sugars were hydrolyzed via acid hydrolysis and glucose content was measured.
To observe how GWDs can be utilized to enhance starch utilization, native Arabidopsis starch was first treated with combinations of BAM3, ISA3, St-GWD, and At-SEX4. a high-speed spin was performed to remove the undigested starch, any remaining oligo-saccharides were hydrolyzed, and glucose released into the supernatant was measured (FIG. 7). Glucose was only released upon addition of amylases.
Native Arabidopsis starch was treated with combinations of BAM3, ISA3, StGWD, and AtSEX4, performed a high-speed spin to remove the undigested starch, hydrolyzed any remaining oligo-saccharides, and measured glucose released into the supernatant (FIG. 7). Glucose was only released upon addition of amylases, as expected.

In the case of “Cm-GWD: full length Cyanidioschyzon merolae glucan, water dikinase, amino acids 1-1572”, the “activity compared with At-GWD and At-PWD” value ([1]; FIG. 2) is reported as “between that of At-GWD and At-PWD” and the “ability to phosphorylate starch (specific activity)” value (from here on “ability to phosphorylate starch”) [1] is reported as “robust specific activity”.

In the case of `OC[C@H]1O[C@H](O[C@H]2[C@H](O)[C@@H](O)[C@@H](O[C@H]3[C@H](O)[C@@H](O)[C@@H](O[C@H]4[C@H](O)[C@@H](O)[C@@H](O[C@H]5[C@H](O)[C@@H](O)[C@@H](O[C@H]6[C@H](O)[C@@H](O)C(O)O[C@@H]6CO)O[C@@H]5CO)O[C@@H]4CO)O[C@@H]3CO)O[C@@H]2CO)[C@H](O)[C@@H](O)[C@@H]1O` (some centres unmarked) [maltohexaose], the Kd ([2]; change in Tm with increasing concentration of oligosaccharide, apparent dissociation constant) is reported as 7 mM.

For “NcCBM20-AtPWD: CBM20 of Neurospora crassa NCU08746 fused N-terminally to the dikinase domain of PWD”, the “phosphorylation of starch by chimeric CBM-dikinase” value ([1]; phosphate-less Arabidopsis (sex1-3) starch or potato starch, FIG. 11A) was “robustly phosphorylated starch” and the “priming of starch for phosphorylation by wild-type AtPWD” value ([1]; sex1-3 starch pretreated with the enzyme, FIG. 11B) was “served to prime wild-type AtPWD; also recorded: to a greater extent than starch pretreated with wild-type StGWD”.

For `OC[C@H]1O[C@H](O[C@H]2[C@H](O)[C@@H](O)C(O)O[C@@H]2CO)[C@H](O)[C@@H](O)[C@@H]1O` (some centres unmarked) [maltose], the “stabilization (change in Tm)” value ([2]; increasing concentration of oligosaccharide, negative control) was “No stabilization”.

B1: truncated Cm-GWD construct (residues 511-1572): truncated Cm-GWD encoding the second predicted CBM and catalytic dikinase domain (protein)
chain: MTILGLERRSLDDDGETVICFSVEEDGFALRVHADLSPLVIHWGIARHRVTEFLQPDESLAVETKGRTYRFENKAMRTEFVPDEHHQGTYYAEIHLKKEHAPRAVTFVLFNPELNRWYRAEGGGNFVLRMDLESFSQLPGSVGKHEDVAQKIIEVEVEYGSWTLMHRYNLANDILRNSMSALDADLLQIVFVWLRYSFLRQLDWQRSYNTQPRLLAHAQEQLTTTLAQVFVSRPDLRLWVRLCLSMLGRGGGNGQRIRDDILRIMHKHHIPETPGHFMEQWHQKLHNNTTPDDVAICESYLAFLRSNGDKNVFYETLQKHGVTKERLASYERPIFAEVQTYPCDTNSLIHDFEEYLHVLKSVHSGTDLAVVLDYARWTLDQELISKVEHIQSVRAELMASPQGALEFSFLIAEARKMLQSTLEHVEDPTRVRDMLFLDLALDELARLAVESQGLADYVAETDVQKACNLLVVLAQHVGWSMLSSAFLETSYDLAALVYGIQSDVQLQEPDFGLRLYATMERLMDCVGHDVVERLHHDVQPKAVYIGVGCNIDQKVVTLFSEELIRGQAAFALAQVLRPLMRNIRKQANLGNWQVISPGSCTGQGAVFDELLSIQYKTFAEPTVAFVRRISGEEEIPTGMVGLITTDTLDILSHCAVRARNEHVVLACCFSEELFDQLTERFRGAWVAVRSLTDGSLDFQPIQEGAGRTTAADTTDGASEHAQRRAVSMRSDIEKKPVKSVLGIAQFNTQRGGSKSNSLAKLIRVIPDWIHIPPCALLPFGVCEQVLAEAQNSDVGERFQQLMAELDGKGPTDDCSALLARLRHCVRQLAPSDTFMKELQQVLQHEGFHSIDNLDMRRAWECILDVWASKFNDRAFLALRKAGAVGKTSLSSLYMAVLVQEVVPADYAFVLHTKNPFTGEPSEIYGELVHGLGEVLVGNYPGRALGFTYSKSTGQVRVCNYPSKTKALIPRGGLIFRSDSNGEDLEDFAGAGLFDSILMQPAEEVVVRYRELKILQDKAYLERILSKIGKCGIEIESNCGNKPQDIEGCICGEDVYVVQSRDQV
modifications: Fragment of Cyanidioschyzon merolae GWD polypeptide
notes: truncated Cm-GWD encoding the second predicted CBM and catalytic dikinase domain
For B1, the “ability to phosphorylate starch” value [1] was “active glucan dikinase”.

B2: Cm-GWD H1162A: active site mutant (H1162A) of Cm-GWD 511C fragment (protein)
chain: B1 chain with H653A
modifications: Fragment of Cyanidioschyzon merolae GWD polypeptide
For B2, the “ability to phosphorylate starch” value [1] was “lacked activity”.

B3: SEX4: Arabidopsis glucan phosphatase Starch EXcess4 (protein, UniProt Q9FEB5 55-379, looked up)
Phosphoglucan phosphatase …: SESKSSSEMSGVAKDEEKSDEYSQDMTQAMGAVLTYRHELGMNYNFIRPDLIVGSCLQTPEDVDKLRKIGVKTIFCLQQDPDLEYFGVDISSIQAYAKKYSDIQHIRCEIRDFDAFDLRMRLPAVVGTLYKAVKRNGGVTYVHCTAGMGRAPAVALTYMFWVQGYKLMEAHKLLMSKRSCFPKLDAIRNATIDILTGLKRKTVTLTLKDKGFSRVEISGLDIGWGQRIPLTLDKGTGFWILKRELPEGQFEYKYIIDGEWTHNEAEPFIGPNKDGHTNNYAKVVDDPTSVDGTTRERLSSEDPELLEEERSKLIQFLETCSEAEV
For B3, the “effect on glucose release when added to amylases” value ([3]; BAM3, ISA3, 25° C., 60 minutes, FIG. 7) was “did not enhance glucose release on its own”, the “effect on glucose release when used with AtGWD” value ([3]; amylases plus AtGWD plus SEX4 (full starch phosphorylation cycle)) was “more than doubling” and the “effect on glucose release when used with St-GWD” value ([3]; amylases plus St-GWD plus SEX4 (full starch phosphorylation cycle)) was “more than doubling”.
